These results are taken from patent US20210261665A1 (TAYU HUAXIA BIOTECH MEDICAL GROUP, published 2021).

Assay [1] has as its target T1, hPD-1 mIg fusion protein (human; mouse, UniProt Q15116 25-170).
T1 construct: extracellular domain; not shown: CH2-CH3 domain of mouse IgG2a heavy chain (plasmid pmIgG)
The experiment in a line: SPR Biacore T100, hPD-1mIg immobilised by amine coupling, antibody as analyte. How it is done: Binding affinity and kinetics determination of the humanized antibodies: The binding affinity and kinetics of the humanized PD-1 mAbs interact with hPD-1 protein was assessed with Biacore T100 (GE Healthcare Life Sciences). […] Nine different concentrations were tested for each sample. Detailed binding kinetic parameters (association rate, Ka, dissociation rate, Kd, and affinity constant, KD) can be determined by full kinetic analysis.

In assay [2] the target is T2, human PD-1 on cells (human, UniProt Q15116 25-288).
T2 construct: whole, on cells; also called hPD-1; CHO/hPD-1
T2 sequence (Q15116 25-288): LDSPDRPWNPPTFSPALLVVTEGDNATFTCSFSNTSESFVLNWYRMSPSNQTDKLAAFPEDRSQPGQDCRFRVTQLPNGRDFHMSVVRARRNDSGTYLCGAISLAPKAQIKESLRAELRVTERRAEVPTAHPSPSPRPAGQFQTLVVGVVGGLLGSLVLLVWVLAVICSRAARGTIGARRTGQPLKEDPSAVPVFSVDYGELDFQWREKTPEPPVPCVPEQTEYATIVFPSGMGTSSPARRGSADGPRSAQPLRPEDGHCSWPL
Nature of the assay: cell based RBA (flow cytometry): blocking of Biotin-hPD-L1 binding to CHOK1-hPD-1 cells. The protocol: (§1) The cells were then incubated with Alexa 488 labeled Streptavidin and analyzed using a FACSCanto II.

Assay [3] deals with T2, human PD-1 on cells. Nature of the assay: flow cytometry on CHOK1-hPD-1 cells.
Assay [4] addresses T3, Biotin-hPD-1 (human, UniProt Q15116 25-167, limits assumed, biotin label, site not stated). The experiment in a line: competitive ELISA: competitive Ab 15 µg/ml with Biotin-hPD-1; coating Ab Nivolumab 1 µg/ml. How it is done: (§2) A serial dilution of competing antibodies and Biotin-hPD-1 were added to ELISA plates pre-coated with 1 μg/ml a test antibody. HRP conjugated streptavidin was then added, followed by the addition of substrate TMB and quantification with a SpectraMax Plus 384 Microplate Reader at 450 nm wavelength.

In assay [5] the target is T3, Biotin-hPD-1. Nature of the assay: competitive ELISA: competitive Ab 15 µg/ml with Biotin-hPD-1; coating Ab TY101-04-T3-05 1 µg/ml. How it is done:
as §2

Assay [6] has as its target T3, Biotin-hPD-1. The experiment in a line: competitive ELISA: competitive Ab 15 µg/ml with Biotin-hPD-1; coating Ab Pembrolizumab 1 µg/ml. The protocol: as §2
The target in assay [7] is T4, cynomolgus monkey PD-1 on cells (cynomolgus monkey, UniProt B0LAJ3 25-288).
T4 construct: also called cPD-1; CHOK1-cPD-1
T4 sequence (B0LAJ3 entry or part of it limits assumed): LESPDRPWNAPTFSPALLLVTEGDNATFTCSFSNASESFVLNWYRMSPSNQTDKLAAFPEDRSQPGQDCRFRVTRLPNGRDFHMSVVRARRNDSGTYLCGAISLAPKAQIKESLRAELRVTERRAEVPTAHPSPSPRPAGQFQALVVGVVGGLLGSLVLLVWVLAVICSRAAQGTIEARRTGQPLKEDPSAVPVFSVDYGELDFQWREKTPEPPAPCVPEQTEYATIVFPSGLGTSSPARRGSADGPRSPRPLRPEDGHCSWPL
Nature of the assay: flow cytometry on CHOK1-cPD-1 cells.

The target in assay [8] is T5, mPD-1 protein (ELISA coat) (mouse, UniProt Q02242 25-167, limits assumed).
T5 sequence (looked up): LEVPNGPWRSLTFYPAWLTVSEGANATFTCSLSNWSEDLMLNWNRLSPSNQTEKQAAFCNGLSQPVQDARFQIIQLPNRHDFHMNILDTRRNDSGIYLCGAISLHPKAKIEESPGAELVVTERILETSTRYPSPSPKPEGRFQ
Nature of the assay: ELISA against mPD-1 ECD-Fc protein (plate coat). The protocol:
(§3) The bindings of the antibodies to hPD-1 and the cross-reactivity to mPD-1 proteins were tested by ELISA. A serial dilution of test antibodies were added to ELISA plates pre-coated with 1 μg/ml hPD-1 or mPD-1. HRP conjugated goat anti-human IgG or goat anti-mouse IgG antibody was then added, followed by the addition of substrate Tetramethylbenzidine (TMB) and quantification with a SpectraMax Plus 384 Microplate Reader (Molecular Device, LLC., Sunnyvale, Calif.) at 450 nm wavelength.

Assay [9] concerns the target T3, Biotin-hPD-1. Nature of the assay: competitive ELISA: competitive Ab 15 µg/ml with Biotin-hPD-1; coating Ab TY101-4G1 1 µg/ml. How it is done: as §2
In assay [10] the target is T2, human PD-1 on cells. Nature of the assay: cell based RBA (flow cytometry): blocking of Biotin-hPD-L2 binding to CHOK1-hPD-1 cells. How it is done: as §1
For assay [11], the target named is T3, Biotin-hPD-1. The experiment in a line: competitive ELISA: competitive Ab 15 µg/ml with Biotin-hPD-1; coating Ab TY101-01-09 1 µg/ml. How it is done:
as §2

Assay [12] deals with hPD-1 protein (ELISA coat) (human, UniProt Q15116 25-167, limits assumed). The experiment in a line: ELISA against hPD-1 ECD-Fc protein (plate coat). How it is done: as §3
hPD-1 protein (ELISA coat), sequence (Q15116 25-167 limits assumed): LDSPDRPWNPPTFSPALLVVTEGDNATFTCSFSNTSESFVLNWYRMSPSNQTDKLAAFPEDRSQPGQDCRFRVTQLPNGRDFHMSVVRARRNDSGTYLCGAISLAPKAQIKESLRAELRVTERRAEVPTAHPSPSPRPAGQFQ

T1 sequence (Q15116 25-170): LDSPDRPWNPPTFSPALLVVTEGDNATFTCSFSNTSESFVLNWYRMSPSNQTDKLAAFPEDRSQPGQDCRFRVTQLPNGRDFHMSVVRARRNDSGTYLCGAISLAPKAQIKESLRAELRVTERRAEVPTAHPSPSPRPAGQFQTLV
T3 sequence (Q15116 25-167 limits assumed): as the sequence (Q15116 25-167 limits assumed) above

B1: chimeric parental antibody (antibody, human IgG4 S228P, kappa, V domains shown)
VH: EVKLVESGGGLVQPGGSLKLSCAASGFTFSSYTMSWIRQTPEKRLEWVAYISHGGGDTYYPDTVKGRFTISRDNAKNTLYLQMSSLKSEDTAMYYCARHSGYERGYYYVMDYWGQGTSVTVSS
VL: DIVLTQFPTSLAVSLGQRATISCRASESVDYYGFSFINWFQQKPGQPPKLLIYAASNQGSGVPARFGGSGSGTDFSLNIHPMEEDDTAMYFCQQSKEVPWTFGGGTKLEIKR
notes: also called chimeric antibody
For the molecule B1, in assay [1], the Kd stood at 0.0989 nM, the off-rate constant (koff) was determined as 2.85e-05 s⁻¹ and the kon was 288000 M⁻¹ s⁻¹.

B2: Variant 2 (antibody, V domains shown)
VH: EVQLVESGGGLVQPGGSLRLSCAASGFTFSSYTMSWVRQAPGKGLEWVSYISHGGGDTYYADSVKGRFTISRDNSKNTLYLQMNSLRAEDTAVYYCARHSGYERGYYYVMDYWGQGTLVTVSS
VL: DIVMTQSPDSLAVSLGERATINCKASESVDYYGFSFLNWFQQKPGQPPKLLIYAASNRESGVPDRFSGSGSGTDFTLTISSLQAEDVAVYYCQQSKEVPWTFGQGTKLEIKR
notes: Humanized; VH variant a, VK variant b; Constant regions not spelled out; chimeric parent has human IgG4-S228P and human kappa; also called mutant combination 2
In assay [1], B2 registered a Kd of 0.363 nM, a koff of 7.64e-05 s⁻¹ and a kon of 210000 M⁻¹ s⁻¹.

B3: Variant 5 (antibody, V domains shown)
VH: EVQLVESGGGLVQPGGSLRLSCAASGFTFSSYTMSWVRQAPGKGLEWVSYISHGGGDTYYPDSVKGRFTISRDNSKNTLYLQMNSLRAEDTAVYYCARHSGYERGYYYVMDYWGQGTLVTVSS
VL: DIVMTQSPDSLAVSLGERATINCKASESVDYYGFSFLNWFQQKPGQPPKLLIYAASNRESGVPDRFSGSGSGTDFTLTISSLQAEDVAVYYCQQSKEVPWTFGQGTKLEIKR
notes: Humanized; VH variant b, VK variant b; Constant regions not spelled out; chimeric parent has human IgG4-S228P and human kappa; also called mutant combination 5
In assay [1], B3 yielded a Kd of 0.329 nM, a koff of 6.94e-05 s⁻¹ and a kon of 211000 M⁻¹ s⁻¹.

B4: TY101-4G1 (antibody, V domains shown)
VH: EVQLVESGGGLVQPGGSLRLSCAASGFTFSSYTMSWVRQAPGKGLEWVSYISHGGGDTYYADSVKGRFTISRDNSKNTLYLQMNSLRAEDTAVYYCARHSGYERGYYYVMDYWGQGTLVTVSS
VL: DIQLTQSPDSLSVSLGERATINCKASESVDYYGFSFLNWFQQKPGQPPKLLIYAASNRQSGVPDRFSGSGSGTDFTLTISSLQAEDVAVYFCQQSKEVPWTFGQGTKLEIKR
notes: also called TY101 clone TY101-4G1
Regarding B4, the IC50 in [2] stood at 1.47 nM; in assay [10], 2.33 nM. Besides, the Inhibition rate in assay [2] was 99.5%; in assay [10], 94.7%. The EC50 in assay [3] stood at 0.94 nM; in [7] it was 1.46 nM; in assay [12], 0.15 nM. Moreover, the “Max MFI” value in assay [3] is 23700; in [7], 20700. Moreover, the “Inhibition (%)” value in assay [4] came out at 94%; in assay [5] it was 94%; in assay [6], 94%; in assay [9], 95%; in assay [11] it was 94%. In addition, the “Max OD450” value in assay [8] came to 1.33; in assay [12], 3.01. Besides, the binding result in assay [8] is “no binding (tested: 100 nM)”.

B5: Variant 8 (antibody, V domains shown)
VH: EVKLLESGGGLVQPGGSLRLSCAASGFTFSSYTMSWVRQAPGKGLEWVSYISHGGGDTYYPDSVKGRFTISRDNSKNTLYLQMNSLRAEDTAVYYCARHSGYERGYYYVMDYWGKGTTVTVSS
VL: DIVMTQSPDSLAVSLGERATINCKASESVDYYGFSFLNWFQQKPGQPPKLLIYAASNRESGVPDRFSGSGSGTDFTLTISSLQAEDVAVYYCQQSKEVPWTFGQGTKLEIK
notes: Humanized; VH variant c, VK variant b; Constant regions not spelled out; also called mutant combination 8
On to B5, for which, in assay [1], the affinity, expressed as Kd, was 0.358 nM; the koff was found to be 7.95e-05 s⁻¹; the kon amounted to 222000 M⁻¹ s⁻¹.

B6: Variant 6 (antibody, V domains shown)
VH: EVQLVESGGGLVQPGGSLRLSCAASGFTFSSYTMSWVRQAPGKGLEWVSYISHGGGDTYYPDSVKGRFTISRDNSKNTLYLQMNSLRAEDTAVYYCARHSGYERGYYYVMDYWGQGTLVTVSS
VL: DIQLTQSPDSLSVSLGERATINCKASESVDYYGFSFLNWFQQKPGQPPKLLIYAASNRQSGVPDRFSGSGSGTDFTLTISSLQAEDVAVYFCQQSKEVPWTFGQGTKLEIKR
notes: Humanized; VH variant b, VK variant c; Constant regions not spelled out; chimeric parent has human IgG4-S228P and human kappa; also called mutant combination 6
With B6, in [1], the affinity, expressed as Kd, was 0.0898 nM; the off-rate constant (koff) turned out to be 2.23e-05 s⁻¹; the kon was 248000 M⁻¹ s⁻¹.

B7: Variant 4 (antibody, V domains shown)
VH: EVQLVESGGGLVQPGGSLRLSCAASGFTFSSYTMSWVRQAPGKGLEWVSYISHGGGDTYYPDSVKGRFTISRDNSKNTLYLQMNSLRAEDTAVYYCARHSGYERGYYYVMDYWGQGTLVTVSS
VL: DIVMTQSPDSLAVSLGERATINCKSSESVDYYGFSFLNWFQQKPGQPPKLLIYAASNRESGVPDRFSGSGSGTDFTLTISSLQAEDVAVYYCQQSKEVPWTFGQGTKLEIKR
notes: Humanized; VH variant b, VK variant a; Constant regions not spelled out; chimeric parent has human IgG4-S228P and human kappa; also called mutant combination 4
In assay [1], B7 gave a Kd of 0.338 nM, a koff of 6.29e-05 s⁻¹ and an on-rate (kon) of around 186000 M⁻¹ s⁻¹.

B8: Variant 9 (antibody, V domains shown)
VH: EVKLLESGGGLVQPGGSLRLSCAASGFTFSSYTMSWVRQAPGKGLEWVSYISHGGGDTYYPDSVKGRFTISRDNSKNTLYLQMNSLRAEDTAVYYCARHSGYERGYYYVMDYWGKGTTVTVSS
VL: DIQLTQSPDSLSVSLGERATINCKASESVDYYGFSFLNWFQQKPGQPPKLLIYAASNRQSGVPDRFSGSGSGTDFTLTISSLQAEDVAVYFCQQSKEVPWTFGQGTKLEIK
notes: Humanized; VH variant c, VK variant c; Constant regions not spelled out; also called mutant combination 9
As for B8, in [1], the affinity, expressed as Kd, was 0.123 nM; the koff amounted to 3.2e-05 s⁻¹; the on-rate (kon) stood at 259000 M⁻¹ s⁻¹.

B9: Variant 7 (antibody, V domains shown)
VH: EVKLLESGGGLVQPGGSLRLSCAASGFTFSSYTMSWVRQAPGKGLEWVSYISHGGGDTYYPDSVKGRFTISRDNSKNTLYLQMNSLRAEDTAVYYCARHSGYERGYYYVMDYWGKGTTVTVSS
VL: DIVMTQSPDSLAVSLGERATINCKSSESVDYYGFSFLNWFQQKPGQPPKLLIYAASNRESGVPDRFSGSGSGTDFTLTISSLQAEDVAVYYCQQSKEVPWTFGQGTKLEIK
notes: Humanized; VH variant c, VK variant a; Constant regions not spelled out; also called mutant combination 7
On to B9, for which, in assay [1], the dissociation constant (Kd) stood at 0.291 nM, the koff turned out to be 6.48e-05 s⁻¹ and the kon is 218000 M⁻¹ s⁻¹.

B10: Variant 1 (antibody, V domains shown)
VH: EVQLVESGGGLVQPGGSLRLSCAASGFTFSSYTMSWVRQAPGKGLEWVSYISHGGGDTYYADSVKGRFTISRDNSKNTLYLQMNSLRAEDTAVYYCARHSGYERGYYYVMDYWGQGTLVTVSS
VL: DIVMTQSPDSLAVSLGERATINCKSSESVDYYGFSFLNWFQQKPGQPPKLLIYAASNRESGVPDRFSGSGSGTDFTLTISSLQAEDVAVYYCQQSKEVPWTFGQGTKLEIKR
notes: Humanized; Constant regions not spelled out for the humanized antibodies; the chimeric parent has human IgG4-S228P and human kappa; also called mutant combination 1
In assay [1], B10 had a Kd of 0.293 nM, a koff of 6.15e-05 s⁻¹ and a kon of 210000 M⁻¹ s⁻¹.
